Results reported in the supplement of paper PMC10126150.
± gives the standard deviation of the averaged measurements.

Tested on: ATP
Experiment: switch fluorescence ratio, 500 uM ATP over buffer (Cy3 cluster intensity, sum of 5 cycles each) (fold (ratio)); higher = stronger signal-on switching upon ATP binding; sequences stand for … in TCGTCGGCAGCGTCAGATGTGTATAAGAGACAGTTTTTTTTTTTTTTTTTTTTTTTTT…TC
Conditions: aptamer strand: ATP DNA aptamer (quencher-CACCTGGGGGAGTATTGCGGAGGAAGG + anchor), 100 nM annealed; ATP concentration: 500 uM
Procedure, shortened: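 Five buffer/ATP imaging cycles were run on Cy3-labelled switching-strand clusters on a modified Illumina MiSeq flow-cell, with NaOH stripping and re-annealing between cycles. In each cycle, clusters annealed to 100 nM quencher-labelled ATP aptamer were imaged in selection buffer, then after 15 min with 500 uM ATP at 22 °C. Per cluster, the fluorescence ratio is summed target-cycle over summed buffer-cycle Cy3 intensity, averaged per switch-domain sequence. Only clusters within 100-1000 RFU were kept.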
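Also: ATP exposure 15 min at 22 °C before imaging.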

Sequence	switch fluorescence ratio
GGTTGTGCTT	0.995 ± 0.0039
ATATAGTTTG	1.001 ± 0.0031
TCGTCTTTTG	0.997 ± 0.015
TTGTTTGGGG	0.998 ± 0.026
GTGGGAAGGT	0.994 ± 0.038
CCTGCATTTG	1.0933 ± 0.00019
CGGCCTTACC	1.334 ± 0.0037
ATTTGTAAGA	0.9927 ± 0.0045
TCGAAGGCAT	1.06 ± 0.03
AATGGGCGAG	1.08 ± 0.18
TTTTTGCGTC	1.03 ± 0.059
ACTGTGCTCT	1.02 ± 0.016
CTCTACTCAA	1.37 ± 0.031
GCATTAGTTT	1.04 ± 0.012
AACTCATATT	0.959 ± 0.013
CTTGCGCCTG	1.01 ± 0.048
TGGCATAGTT	0.995 ± 0.042
CGAAATGCGG	0.982 ± 0.036
GGGGGGTACT	0.994 ± 0.033
TTAGGAAGAT	1.36 ± 0.59
TCAGGTCGCA	0.9894 ± 0.0054
ACCCGGCACA	1.21 ± 0.051

Sequence	switch fluorescence ratio
TAGCTGAGAC	1.162 ± 0.006
CTTTGGAGAC	1.06 ± 0.051
GTGTGGCACT	0.9989 ± 0.0056
TGACAGTAAC	1.25 ± 0.25
TTTCGGCGGT	1.02 ± 0.021
GCGAGATGAT	0.977 ± 0.022
AGTAACGCGG	0.979 ± 0.014
ATCATTGTTA	1 ± 0.053
AAAGGGGGGA	0.995 ± 0.029
GGGGAATTAA	0.99 ± 0.018
ATGTTGTTGA	0.998 ± 0.024
TAAAAAGGGG	0.998 ± 0.012
TGTGTGTTTG	0.989 ± 0.015
ATACCGTGAG	1.05 ± 0.011
AGAGGGATCT	1.022 ± 0.0072
CAGGGTTTTT	0.999 ± 0.017
TGATAGTCTA	1 ± 0.068
GTCGGTACGG	1 ± 0.026
TAGGTGTGTT	0.981 ± 0.019
GGGGACTGAT	0.995 ± 0.022
TTGAGGTCTT	0.964 ± 0.024
TCATTTGGCA	0.983 ± 0.01

Sequence	switch fluorescence ratio
CGCCTGGCTT	1 ± 0.013
GCTAGTGAAC	1.029 ± 0.0091
AGTGGACGGG	0.994 ± 0.023
AACCGGTTAG	0.996 ± 0.011
TGTGCAATGT	1.3 ± 0.029
ATGAAGGGAT	0.9969 ± 0.00076
CGGTTTCCTC	1.11 ± 0.074
TGTTATTGAA	0.992 ± 0.046
GGGGGGCCTT	1 ± 0.04
CAAGGATTTA	1.02 ± 0.044
CTGAGTATGG	1.01 ± 0.0034
TAGCTGGGGA	1.01 ± 0.033
CGGCAAATAG	2.52 ± 0.3
CATATAAACT	1.039 ± 0.0047
GCGGGGACAT	0.994 ± 0.013
CGAGTTAATT	1.014 ± 0.0097
TGATTAGTTG	0.993 ± 0.02
CACTGTCGAT	1.016 ± 0.0097
ATGTTTCACA	0.951 ± 0.011
TTTAAAATAT	0.998 ± 0.046
AAGATCATAA	0.994 ± 0.019
ACGGGGCATC	1.07 ± 0.013

Sequence	switch fluorescence ratio
TTTAGAAAAT	1.01 ± 0.0098
AGGAGTTTAG	0.9867 ± 0.0093
TGCATTGGAG	1.01 ± 0.043
TCCACTGGAT	1.03 ± 0.013
TGTTCTTAGT	1 ± 0.048
GTGGAAGCTT	1.01 ± 0.041
GCACGTGCAG	0.9955 ± 0.0041
GGTTCGGCGG	1.01 ± 0.045
TGCGAGTTCT	1 ± 0.014
GAGCTAGGAT	0.985 ± 0.018
GGGTGTTTTT	0.98 ± 0.0073
AACTTGTCGA	0.886 ± 0.047
GATCGCTAGG	0.984 ± 0.035
GAGGGTAGGT	1.06 ± 0.063
TGTATGTCGG	0.959 ± 0.03
AGGGATGGTT	0.982 ± 0.013
GCGCATAGGG	1.04 ± 0.044
GTTTTTTGTG	0.986 ± 0.013
TTTTATTGGG	0.975 ± 0.031
